This is an account of results in the supplement of paper PMC5998384.

The subject of data set [1] is HeLa Kyoto. The data set can be described thus: thermal stability score vs G1/S (z-score of summed log2 fold changes over temperatures); higher = more thermally stable than in G1/S.
For data set [2], the system named is HeLa Kyoto. The data set is described as follows: solubility in G1/S (NP-40 vs SDS abundance) (log2 ratio); higher = more soluble. As to conditions: cell cycle stage: G1/S.
Data set [3] deals with HeLa Kyoto. The data set is described as follows: solubility change mitosis vs G1/S (difference of NP-40 vs SDS log2 ratios) (log2 ratio difference); higher = more soluble in mitosis.
For data set [4], the system named is HeLa Kyoto. The data set is described as follows: melting temperature (median over replicates), in situ; higher = more thermally stable.
Where [5] appears, read: cell cycle stage: early G1 (4.5 h after nocodazole release).
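For melting temperature (median over replicates), in situ in this document: HeLa Kyoto cells synchronized by double thymidine or nocodazole block, proteins quantified by TMT10plex mass spectrometry, three independent biological replicates.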
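For solubility change mitosis vs G1/S (difference of NP-40 vs SDS log2 ratios) in this document: synchronized HeLa Kyoto cells (double thymidine block for G1/S, nocodazole release for mitosis), protein amounts in NP-40 versus SDS lysates quantified by mass spectrometry, three biological replicates.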
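For solubility in G1/S (NP-40 vs SDS abundance) in this document: HeLa Kyoto cells arrested at G1/S by double thymidine block, proteins quantified by TMT10plex mass spectrometry in mild NP-40 versus SDS extracts, three biological replicates.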
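For thermal stability score vs G1/S (z-score of summed log2 fold changes over temperatures) in this document: synchronized HeLa Kyoto cells, proteins quantified by TMT10plex mass spectrometry, three biological replicates, mitosis taken 0.5 h after nocodazole release, G1/S directly after double thymidine block.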

Consider “MGWVGGRRRDSASPPGRSRSAADDINPAPANMEGGGGSVAVAGLGARGSGAAAATVRELLQDGCYSDFLNEDFDVKTYTSQSIHQAVIAEQLAKLAQGISQLDRELHLQVVARHEDLLAQATGIESLEGVLQMMQTRIGALQGAVDRIKAKIVEPYNKIVARTAQLARLQVACDLLRRIIRILNLSKRLQGQLQGGSREITKAAQSLNELDYLSQGIDLSGIEVIENDLLFIARARLEVENQAKRLLEQGLETQNPTQVGTALQVFYNLGTLKDTITSVVDGYCATLEENINSALDIKVLTQPSQSAVRGGPGRSTMPTPGNTAALRASFWTNMEKLMDHIYAVCGQVQHLQKVLAKKRDPVSHICFIEEIVKDGQPEIFYTFWNSVTQALSSQFHMATNSSMFLKQAFEGEYPKLLRLYNDLWKRLQQYSQHIQGNFNASGTTDLYVDLQHMEDDAQDIFIPKKPDYDPEKALKDSLQPYEAAYLSKSLSRLFDPINLVFPPGGRNPPSSDELDGIIKTIASELNVAAVDTNLTLAVSKNVAKTIQLYSVKSEQLLSTQGDASQVIGPLTEGQRRNVAVVNSLYKLHQSVTKVVSSQSSFPLAAEQTIISALKAIHALMENAVQPLLTSVGDAIEAIIITMHQEDFSGSLSSSGKPDVPCSLYMKELQGFIARVMSDYFKHFECLDFVFDNTEAIAQRAVELFIRHASLIRPLGEGGKMRLAADFAQMELAVGPFCRRVSDLGKSYRMLRSFRPLLFQASEHVASSPALGDVIPFSIIIQFLFTRAPAELKSPFQRAEWSHTRFSQWLDDHPSEKDRLLLIRGALEAYVQSVRSREGKEFAPVYPIMVQLLQKAMSALQ [COG5]”, for which the values for the thermal stability score with HeLa Kyoto [1] (setting [5]) and in the data set on HeLa Kyoto [1] (cell cycle stage: mitosis) were 0.309 and 0.873, respectively. Also, the “solubility in G1/S (log2)” value in the data set with HeLa Kyoto [2] is 0.00411. Moreover, the “solubility change mitosis (log2)” value in the data set on HeLa Kyoto [3] was -0.0443. Also, the melting temperature with HeLa Kyoto [4] (cell cycle stage: G1/S) is 48.3 °C; in the data set with HeLa Kyoto [4] (cell cycle stage: mitosis), 48 °C.

For the sequence “MGYFRCARAGSFGRRRKMEPSTAARAWALFWLLLPLLGAVCASGPRTLVLLDNLNVRETHSLFFRSLKDRGFELTFKTADDPSLSLIKYGEFLYDNLIIFSPSVEDFGGNINVETISAFIDGGGSVLVAASSDIGDPLRELGSECGIEFDEEKTAVIDHHNYDISDLGQHTLIVADTENLLKAPTIVGKSSLNPILFRGVGMVADPDNPLVLDILTGSSTSYSFFPDKPITQYPHAVGKNTLLIAGLQARNNARVIFSGSLDFFSDSFFNSAVQKAAPGSQRYSQTGNYELAVALSRWVFKEEGVLRVGPVSHHRVGETAPPNAYTVTDLVEYSIVIQQLSNGKWVPFDGDDIQLEFVRIDPFVRTFLKKKGGKYSVQFKLPDVYGVFQFKVDYNRLGYTHLYSSTQVSVRPLQHTQYERFIPSAYPYYASAFSMMLGLFIFSIVFLHMKEKEKSD [DDOST]”, the thermal stability score with HeLa Kyoto [1] (setting [5]) was 2.5; in the data set with HeLa Kyoto [1] (cell cycle stage: mitosis) it was 2.41. Further, the “solubility in G1/S (log2)” value in the data set with HeLa Kyoto [2] was -0.0357. Also, the “solubility change mitosis (log2)” value in the data set on HeLa Kyoto [3] is -0.163. For the same sequence, the results for the melting temperature in the data set with HeLa Kyoto [4] (cell cycle stage: G1/S) and in the data set on HeLa Kyoto [4] (cell cycle stage: mitosis) were 54.1 °C and 54.2 °C, respectively.

With “MHDAFEPVPILEKLPLQIDCLAAWEEWLLVGTKQGHLLLYRIRKDVVPADVASPESGSCNRFEVTLEKSNKNFSKKIQQIHVVSQFKILVSLLENNIYVHDLLTFQQITTVSKAKGASLFTCDLQHTETGEEVLRMCVAVKKKLQLYFWKDREFHELQGDFSVPDVPKSMAWCENSICVGFKRDYYLIRVDGKGSIKELFPTGKQLEPLVAPLADGKVAVGQDDLTVVLNEEGICTQKCALNWTDIPVAMEHQPPYIIAVLPRYVEIRTFEPRLLVQSIELQRPRFITSGGSNIIYVASNHFVWRLIPVPMATQIQQLLQDKQFELALQLAEMKDDSDSEKQQQIHHIKNLYAFNLFCQKRFDESMQVFAKLGTDPTHVMGLYPDLLPTDYRKQLQYPNPLPVLSGAELEKAHLALIDYLTQKRSQLVKKLNDSDHQSSTSPLMEGTPTIKSKKKLLQIIDTTLLKCYLHTNVALVAPLLRLENNHCHIEESEHVLKKAHKYSELIILYEKKGLHEKALQVLVDQSKKANSPLKGHERTVQYLQHLGTENLHLIFSYSVWVLRDFPEDGLKIFTEDLPEVESLPRDRVLGFLIENFKGLAIPYLEHIIHVWEETGSRFHNCLIQLYCEKVQGLMKEYLLSFPAGKTPVPAGEEEGELGEYRQKLLMFLEISSYYDPGRLICDFPFDGLLEERALLLGRMGKHEQALFIYVHILKDTRMAEEYCHKHYDRNKDGNKDVYLSLLRMYLSPPSIHCLGPIKLELLEPKANLQAALQVLELHHSKLDTTKALNLLPANTQINDIRIFLEKVLEENAQKKRFNQVLKNLLHAEFLRVQEERILHQQVKCIITEEKVCMVCKKKIGNSAFARYPNGVVVHYFCSKEVNPADT [VPS39]”, the thermal stability score is 0.627 in the data set with HeLa Kyoto [1] (setting [5]) and 0.376 in the data set on HeLa Kyoto [1] (cell cycle stage: mitosis). Besides, the “solubility in G1/S (log2)” value in the data set on HeLa Kyoto [2] was -0.174. Also, the “solubility change mitosis (log2)” value in the data set on HeLa Kyoto [3] was -0.261. The melting temperature with HeLa Kyoto [4] (cell cycle stage: G1/S) was determined as 50.8 °C; with HeLa Kyoto [4] (cell cycle stage: mitosis), 50.1 °C.

As to “MHPAVFLSLPDLRCSLLLLVTWVFTPVTTEITSLDTENIDEILNNADVALVNFYADWCRFSQMLHPIFEEASDVIKEEFPNENQVVFARVDCDQHSDIAQRYRISKYPTLKLFRNGMMMKREYRGQRSVKALADYIRQQKSDPIQEIRDLAEITTLDRSKRNIIGYFEQKDSDNYRVFERVANILHDDCAFLSAFGDVSKPERYSGDNIIYKPPGHSAPDMVYLGAMTNFDVTYNWIQDKCVPLVREITFENGEELTEEGLPFLILFHMKEDTESLEIFQNEVARQLISEKGTINFLHADCDKFRHPLLHIQKTPADCPVIAIDSFRHMYVFGDFKDVLIPGKLKQFVFDLHSGKLHREFHHGPDPTDTAPGEQAQDVASSPPESSFQKLAPSEYRYTLLRDRDEL [ERP44]”, the thermal stability score amounted to 5.67 in the data set with HeLa Kyoto [1] (setting [5]) and 6.88 with HeLa Kyoto [1] (cell cycle stage: mitosis). The “solubility in G1/S (log2)” value with HeLa Kyoto [2] amounted to 0.277. In addition, the “solubility change mitosis (log2)” value with HeLa Kyoto [3] is -0.0724. Further, the melting temperature in the data set with HeLa Kyoto [4] (cell cycle stage: G1/S) turned out to be 53.9 °C; with HeLa Kyoto [4] (cell cycle stage: mitosis), 54.1 °C.
